Publication PMC10786891, “Massively parallel profiling of RNA-targeting CRISPR-Cas13d”
Positions count from the first letter of the chain named. Names and notes keep the numbering of the source.

T1: EsCas13d, nuclease-dead (Eubacterium siraeum, UniProt B0MS50, R295A;H300A;R849A;H854A)
T1 sequence: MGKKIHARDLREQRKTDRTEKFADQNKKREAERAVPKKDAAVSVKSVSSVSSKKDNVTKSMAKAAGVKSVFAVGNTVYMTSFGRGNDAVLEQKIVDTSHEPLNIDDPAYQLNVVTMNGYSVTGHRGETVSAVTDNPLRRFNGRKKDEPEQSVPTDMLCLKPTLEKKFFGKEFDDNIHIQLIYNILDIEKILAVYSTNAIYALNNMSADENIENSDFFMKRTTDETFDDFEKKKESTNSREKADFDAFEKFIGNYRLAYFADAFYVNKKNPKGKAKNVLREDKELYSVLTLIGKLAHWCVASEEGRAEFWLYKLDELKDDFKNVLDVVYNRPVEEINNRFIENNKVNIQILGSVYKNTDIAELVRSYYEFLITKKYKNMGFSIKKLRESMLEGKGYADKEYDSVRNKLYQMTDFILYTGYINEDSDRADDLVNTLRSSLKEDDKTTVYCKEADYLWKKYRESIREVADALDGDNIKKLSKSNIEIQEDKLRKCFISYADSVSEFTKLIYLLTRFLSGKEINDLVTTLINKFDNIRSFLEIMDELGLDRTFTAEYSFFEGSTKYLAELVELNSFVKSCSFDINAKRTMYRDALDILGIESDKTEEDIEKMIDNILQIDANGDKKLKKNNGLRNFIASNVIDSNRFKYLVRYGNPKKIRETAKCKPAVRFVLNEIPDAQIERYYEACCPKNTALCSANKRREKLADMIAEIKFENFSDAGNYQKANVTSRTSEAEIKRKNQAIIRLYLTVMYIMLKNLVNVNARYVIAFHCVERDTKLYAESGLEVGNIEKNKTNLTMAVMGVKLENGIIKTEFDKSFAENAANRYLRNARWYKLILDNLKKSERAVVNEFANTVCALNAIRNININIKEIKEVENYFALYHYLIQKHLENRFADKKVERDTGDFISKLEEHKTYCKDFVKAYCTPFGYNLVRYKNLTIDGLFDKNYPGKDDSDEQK

B1: target 1 A1U,U3G (mixed)
RNA 1: CACCCGUGCAAAAAUGCAGGGGUCUAAAACUGAGCGGAUAACCUCUCUAUGG
RNA 2: GGGAAUGGAUCCACAUCUACGAAUUCGUACCAUAGAGAGGUUAUCCGCGCUCCGAGAUCGGAAGAGCACACGU
B2: target 1 A9G,G17U (mixed)
RNA 1: B1 RNA 1
RNA 2: B1 RNA 2 with G35U, A43G, G49U, U51A
B3: target 1 C7U,G15C (mixed)
RNA 1: B1 RNA 1
RNA 2: B1 RNA 2 with G37C, C45U, G49U, U51A
B4: target 1 G13A,U19A (mixed)
RNA 1: B1 RNA 1
RNA 2: B1 RNA 2 with U33A, G39A, G49U, U51A
B5: target 1 G13U,C22U (mixed)
RNA 1: B1 RNA 1
RNA 2: B1 RNA 2 with C30U, G39U, G49U, U51A
B6: target 1 A1C,U3G (mixed)
RNA 1: B1 RNA 1
RNA 2: B1 RNA 2 with U51C
B7: target 1 insG 3' of 8,insA 3' of 2 (mixed)
RNA 1: B1 RNA 1
RNA 2: GGGAAUGGAUCCACAUCUACGAAUUCGUACCAUAGAGAGGUUAUGCCGCUCAACCGAGAUCGGAAGAGCACACGU
B8: target 1 insG 3' of 18,insA 3' of 17 (mixed)
RNA 1: B1 RNA 1
RNA 2: GGGAAUGGAUCCACAUCUACGAAUUCGUACCAUAGGAAGAGGUUAUCCGCUCACCGAGAUCGGAAGAGCACACGU
B9: target 1 G17U,C21U (mixed)
RNA 1: B1 RNA 1
RNA 2: B1 RNA 2 with C31U, G35U, G49U, U51A
B10: target 1 G12U,G15U (mixed)
RNA 1: B1 RNA 1
RNA 2: B1 RNA 2 with G37U, G40U, G49U, U51A
B11: target 1 insA 3' of 19,insA 3' of 10 (mixed)
RNA 1: B1 RNA 1
RNA 2: B8 RNA 2 with G35A, A38G, G39A, A40G, G42U, U44A
B12: target 1 insC 3' of 9,insU 3' of 9 (mixed)
RNA 1: B1 RNA 1
RNA 2: B7 RNA 2 with U44C, G45U, C46U, G48C, C49G, U50C, C51U, A52C
B13: target 1 insU 3' of 17,insA 3' of 15 (mixed)
RNA 1: B1 RNA 1
RNA 2: B8 RNA 2 with G36U, A38G, G39A
B14: target 1 insA 3' of 21,insA 3' of 7 (mixed)
RNA 1: B1 RNA 1
RNA 2: GGGAAUGGAUCCACAUCUACGAAUUCGUACCAAUAGAGAGGUUAUCACGCUCACCGAGAUCGGAAGAGCACACGU
B15: target 1 insG 3' of 21,insG 3' of 4 (mixed)
RNA 1: B1 RNA 1
RNA 2: B14 RNA 2 with A32G, A47C, C48G, G49C, C50G
B16: target 1 del9,del18 (mixed)
RNA 1: B1 RNA 1
RNA 2: GGGAAUGGAUCCACAUCUACGAAUUCGUACCAUGAGAGGUUUCCGCUCACCGAGAUCGGAAGAGCACACGU
B17: target 1 U3G (mixed)
RNA 1: B1 RNA 1
RNA 2: B1 RNA 2 with U51A
B18: target 1 insC 3' of 15,insA 3' of 12 (mixed)
RNA 1: B1 RNA 1
RNA 2: B8 RNA 2 with G36A, A37G, A38C, G39A, A40G, G42A
B19: target 1 insA 3' of 11,insA 3' of 11 (mixed)
RNA 1: B1 RNA 1
RNA 2: B8 RNA 2 with G36A, A37G, A40G, G41U, G42A, U43A
B20: target 1 insA 3' of 17,insU 3' of 7 (mixed)
RNA 1: B1 RNA 1
RNA 2: B14 RNA 2 with A33U, U34A, A35G, G36A, A47U
B21: target 1 insU 3' of 17,insA 3' of 6 (mixed)
RNA 1: B1 RNA 1
RNA 2: B14 RNA 2 with A33U, U34A, A35G, G36U, A47C, C48A
B22: target 1 insA 3' of 22,insC 3' of 3 (mixed)
RNA 1: B1 RNA 1
RNA 2: B14 RNA 2 with C31A, A32C, A47C, C48G, G49C, C50U, U51C
B23: target 1 U3A,C4U (mixed)
RNA 1: B1 RNA 1
RNA 2: B1 RNA 2 with C48U, G49A, U51A
B24: target 1 insA 3' of 17,insG 3' of 16 (mixed)
RNA 1: B1 RNA 1
RNA 2: B8 RNA 2 with G36A, A38G
B25: target 1 insA 3' of 4,insC 3' of 3 (mixed)
RNA 1: B1 RNA 1
RNA 2: B7 RNA 2 with G45C, C47G, G48C, C49A, A52C
B26: target 1 insU 3' of 22,insU 3' of 15 (mixed)
RNA 1: B1 RNA 1
RNA 2: B8 RNA 2 with C31U, A32C, U33A, A34U, G35A, A38G, G39U
B27: target 1 insU 3' of 18,insC 3' of 3 (mixed)
RNA 1: B1 RNA 1
RNA 2: B14 RNA 2 with A33U, U34A, A35U, A47C, C48G, G49C, C50U, U51C
B28: target 1 insG 3' of 18 (mixed)
RNA 1: B1 RNA 1
RNA 2: GGGAAUGGAUCCACAUCUACGAAUUCGUACCAUAGGAGAGGUUAUCCGCUCACCGAGAUCGGAAGAGCACACGU
B29: target 1 C6U,A18U (mixed)
RNA 1: B1 RNA 1
RNA 2: B1 RNA 2 with A34U, C46U, G49U, U51A
B30: target 1 U11G,C22U (mixed)
RNA 1: B1 RNA 1
RNA 2: B1 RNA 2 with C30U, U41G, G49U, U51A
B31: target 1 A1G,U3G (mixed)
RNA 1: B1 RNA 1
RNA 2: B1 RNA 2 with U51G
B32: target 1 insG 3' of 9,insA 3' of 3 (mixed)
RNA 1: B1 RNA 1
RNA 2: B7 RNA 2 with U44G, G45U, C51A, A52C
B33: target 1 insC 3' of 22,insU 3' of 2 (mixed)
RNA 1: B1 RNA 1
RNA 2: B14 RNA 2 with A32C, A47C, C48G, G49C, C50U, U51C, C52U
B34: target 1 insU 3' of 5,insU 3' of 4 (mixed)
RNA 1: B1 RNA 1
RNA 2: B7 RNA 2 with G45C, C47G, G48U, C51U, A52C

The binders below were run against T1, EsCas13d, nuclease-dead (assay: crRNA (strand 1, pre-loaded); Mg2+; 40 mM Tris-HCl pH 7.5, 150 mM NaCl, 6 mM MgCl2, 1 mM DTT, 0.1% Tween-20, 0.2 mg/ml BSA; 25 C; 10 min per concentration, then washed). Details: tags: His6-TwinStrep-SUMO cleaved; N-terminal SNAP kept (SNAP-Surface 488); label: 3' end held by stalled T7 RNA polymerase.

Q: With B1 as the binder, how does the Kd read?
A: The Kd was 8.1 ± 0.4 nM.

Q: With B2 as the binder, how does the Kd read?
A: Its Kd is 35 ± 6 nM.

Q: With B3 as the binder, how does the Kd read?
A: Its Kd is 48 ± 7 nM.

Q: For B4, which Kd is on record?
A: The Kd was 38 ± 6 nM.

Q: Which Kd does the source give for B5 here?
A: Its Kd is 82 ± 27 nM.

Q: Which Kd does the source give for B6 here?
A: Its Kd is 46 ± 7 nM.

Q: Which Kd does the source give for B7 here?
A: The Kd was 13.2 ± 0.9 nM.

Q: For B8, which Kd is on record?
A: Its Kd is 53 ± 8 nM.

Q: B9 was tested. Which Kd did it give?
A: The Kd was 12 ± 0.9 nM.

Q: Which Kd does the source give for B10 here?
A: The Kd was 23.3 ± 1.8 nM.

Q: How did the Kd turn out when B11 was run?
A: The Kd was 30.7 ± 1.4 nM.

Q: Which Kd does the source give for B12 here?
A: Its Kd is 7.9 ± 0.9 nM.

Q: For B13, which Kd is on record?
A: The Kd was 15.3 ± 2 nM.

Q: Which Kd does the source give for B14 here?
A: The Kd was 12.6 ± 0.8 nM.

Q: Which Kd does the source give for B15 here?
A: Its Kd is 51 ± 11 nM.

Q: How did the Kd turn out when B16 was run?
A: Its Kd is 100 ± 50 nM.

Q: Which Kd does the source give for B17 here?
A: Its Kd is 11.3 ± 1.3 nM.

Q: For B18, which Kd is on record?
A: The Kd was 77 ± 24 nM.

Q: Which Kd does the source give for B19 here?
A: Its Kd is 8.6 ± 0.5 nM.

Q: For B20, which Kd is on record?
A: Its Kd is 20.6 ± 1.6 nM.

Q: For B21, which Kd is on record?
A: The Kd was 45 ± 10 nM.

Q: Which Kd does the source give for B22 here?
A: Its Kd is 16.1 ± 2.5 nM.

Q: Which Kd does the source give for B23 here?
A: Its Kd is 37 ± 5 nM.

Q: Which Kd does the source give for B24 here?
A: The Kd was 18.7 ± 1.5 nM.

Q: How did the Kd turn out when B25 was run?
A: The Kd was 19.9 ± 2.5 nM.

Q: B26 was tested. Which Kd did it give?
A: Its Kd is 34 ± 6 nM.

Q: How did the Kd turn out when B27 was run?
A: Its Kd is 28 ± 4 nM.

Q: How did the Kd turn out when B28 was run?
A: The Kd was 48 ± 5 nM.

Q: Which Kd does the source give for B29 here?
A: Its Kd is 25.8 ± 2 nM.

Q: For B30, which Kd is on record?
A: Its Kd is 42 ± 7 nM.

Q: B31 was tested. Which Kd did it give?
A: Its Kd is 3.35 ± 0.12 nM.

Q: Which Kd does the source give for B32 here?
A: Its Kd is 10.3 ± 0.8 nM.

Q: For B33, which Kd is on record?
A: The Kd was 23 ± 4 nM.

Q: B34 was tested. Which Kd did it give?
A: The Kd was 17.8 ± 2.9 nM.
